The values that follow come from patent US20220220215A1 (CRESCENDO BIOLOGICS, published 2022).

The target in assay [1] is T1, biotinylated human CD137-His (human, UniProt Q07011 24-186, biotinylated).
T1 construct: not shown: His tag
Put plainly: SPR, Biacore 8K, multi-cycle kinetics; biotinylated antigen captured on streptavidin chip; 1:1 model. Here is the method: (§1) Multi cycle kinetics assays were then used to evaluate the kinetics and affinity of the interaction. Experiments were performed at […] in HBS-EP+ assay buffer with a flow rate of 30 μl/minute. A streptavidin chip (Streptavidin (SA), Series S, GE Healthcare BR100531) was used to capture the biotinylated human CD137 or human PD-1 reaching a maximum of 75RU or 200RU respectively. A second flow cell without any captured antigen was used as the reference cell. […] The binding kinetics were followed by flowing these over the chip surface. The contact time for the binding steps was 360 or 180 seconds and the dissociation step was 3600 or 1200 seconds for human CD137 and PD1 respectively. After each run, the sensors were regenerated with glycine pH 1.5 to remove the captured Humabody® VH. The data was fitted to a 1:1 binding model after reference subtraction using the Biacore Evaluation software. Example kinetic and binding affinity data obtained is shown Table 19.
Background: In SPR one partner is held on a chip, and binding of the other changes the refractive index at the surface.

The target of assay [2] is T2, biotinylated human PD-1-His tagged protein (human, UniProt Q15116 25-170, biotinylated).
T2 construct: not shown: His tag
Described as above. Here is the method: as §1

For assay [3], the target named is human CD137 expressed on cells (Jurkat human CD137 NF-kB luciferase reporter cells; human CD8+ T cells) (human, UniProt Q07011 24-255). Put plainly: cell-based or functional assay.
The target in assay [4] is T3, recombinant Fc-tagged ectodomain of cynomolgus CD137 (R&D S9324-4b) (cynomolgus macaque, UniProt A9YYE7 24-186).
T3 construct: Bought protein; also called Cyno CD137; cynomolgus macaque CD137; not shown: Fc tag and any linker to it
Put plainly: SPR, Biacore 8K, single-cycle kinetics; Fc-tagged ectodomain captured on Protein G chip; 1:1 model. Here is the method:
(§2) Binding of Humabody® VH constructs was measured using a single-cycle kinetics method using the BIAcore 8K instrument with 90 second sample injections with a sample concentration range of low nanomolar to high nanomolar. […] The Protein G sensor surface was regenerated with a 20 second injection of 10 mM Glycine buffer, pH 1.5 (GE Healthcare BR100354). Data were analysed using a 1:1 binding model in Biacore Insight Evaluation software, including Humabody® VH constructs with two PD-1 arms.

Assay [5] deals with T4, recombinant Fc-tagged ectodomain of human CD137 (Acro Biosystems 41B-H5258) (human, UniProt Q07011 24-186).
T4 construct: Bought protein; not shown: Fc tag
The description is as above. Here is the method: as §2

The target of assay [6] is T5, recombinant Fc-tagged ectodomain of cynomolgus PD1 (Acro Biosystems PD1-C5254) (cynomolgus macaque, UniProt B0LAJ3 25-170).
T5 construct: Bought protein; also called Cyno PD1; cynomolgus macaque PD1; not shown: Fc tag and any linker to it
The assay is described as above. Here is the method:
as §2

Assay [7] has as its target T6, recombinant Fc-tagged ectodomain of human PD1 (Acro Biosystems PD1-H5257) (human, UniProt Q15116 25-170).
T6 construct: Bought protein; not shown: Fc tag
The description is as above. Here is the method: as §2

B1: TPP-1010: PD138G7(G109D)-6GS-HSA2-6GS-CD137D-His (bispecific antibody)
chain: EVQLVESGGGVVRPGGSLRLSCAASGFTFDDYAMSWVRQAPGKGLEWVSGITWNGGSTGYADSVKDRFTISRDNAKNSLYLQMNSLRAEDTALYYCVRDKYSYAWSYDDFDIWGQGTMVTVSSGGGGSGGGGSGGGGSGGGGSGGGGSGGGGSEVQLVESGGGLVKPGGSLRLSCAASGFTFSNYNMNWVRQAPGKGLEWVSSISSAGTHIYYADSVKGRFTISRDNAKNSLYLQMNSLRAEDTAVYYCARDPHSTGWYKDFDYWGQGTLVTVSSGGGGSGGGGSGGGGSGGGGSGGGGSGGGGSEVQLVESGGGVVQPGGSLRLSCAASGFTFSNYGMHWVRQAPGKGLEWVAVISNDGNTKTYADSVKGRFTISRDNSKNTLYLQMNSLRAEDTAVYYCAQDETTTVTASYYFDYWGQGTLVTVSSAAAHHHHHH
Take B1: in assay [1], binding was put at a Kd of 21.1 nM, the off-rate constant (koff) amounted to 0.00366 s⁻¹ and the kon stood at 173000 M⁻¹ s⁻¹. Further, in assay [2], the Kd came out at 5.5 nM, the koff is 0.00274 s⁻¹ and the on-rate (kon) worked out at 498000 M⁻¹ s⁻¹. Further, in assay [3], the “Jurkat-CD137/CHO-PD-1 Reporter Assay EC50” value was found to be 2.29 nM.

B2: TPP-1245 CD137A-6GS-PDA2-6GS-HSA2 (bispecific antibody)
chain: EVQLVESGGGLVQPGGSLRLSCAASGFTLSNYWMNWVRQAPGKGLEWVANINQDGSERYYVDSVKGRFTISRDNAKNSLYLQMNSLRAEDTAVYYCARGGEGYGVDHYGLDVSGQGTTVTVSSGGGGSGGGGSGGGGSGGGGSGGGGSGGGGSEVQLVESGGGVVRPGGSLRLSCAASGFTFDDYAMSWVRQAPGKGLEWVSGITWNAGSTGYADSVKGRFTISRDNAKNSLYLQMNSLRAEDTALYYCVRDKYSYAWSYDDFDIWGQGTMVTVSSGGGGSGGGGSGGGGSGGGGSGGGGSGGGGSEVQLVESGGGLVKPGGSLRLSCAASGFTFSNYNMNWVRQAPGKGLEWVSSISSAGTHIYYADSVKGRFTISRDNAKNSLYLQMNSLRAEDTAVYYCARDPHSTGWYKDFDYWGQGTLVTVSS
As for B2, the dissociation constant (Kd) came to 0.728 nM in assay [4], 0.471 nM in assay [5], 102 nM in assay [6] and 87.6 nM in assay [7]. Besides, the koff came to 0.000263 s⁻¹ in assay [4], 0.000179 s⁻¹ in assay [5], 0.0505 s⁻¹ in assay [6] and 0.0762 s⁻¹ in assay [7]. Also, the association rate constant (kon) turned out to be 361000 M⁻¹ s⁻¹ in assay [4], 381000 M⁻¹ s⁻¹ in assay [5], 493000 M⁻¹ s⁻¹ in assay [6] and 869000 M⁻¹ s⁻¹ in assay [7]. In addition, the “Jurkat-CD137/CHO-PD-1 Reporter Assay EC50” value in assay [3] worked out at 0.113 nM.

B3: TPP-972: CD137A-6GS-PDA-6GS-HSA2-His (bispecific antibody)
chain: EVQLVESGGGLVQPGGSLRLSCAASGFTLSNYWMNWVRQAPGKGLEWVANINQDGSERYYVDSVKGRFTISRDNAKNSLYLQMNSLRAEDTAVYYCARGGEGYGVDHYGLDVSGQGTTVTVSSGGGGSGGGGSGGGGSGGGGSGGGGSGGGGSEVQLVESGGGLVQPGRSLRLSCAASGFTFDDYALHWVRQAPGKDLEWVSGISWNGGSYGYADSVKGRFTISRDNAKNSLYLQMNSLRAEDTALYYCVREKGPGLTGSTADYYGLDAWGQGTMVTVSSGGGGSGGGGSGGGGSGGGGSGGGGSGGGGSEVQLVESGGGLVKPGGSLRLSCAASGFTFSNYNMNWVRQAPGKGLEWVSSISSAGTHIYYADSVKGRFTISRDNAKNSLYLQMNSLRAEDTAVYYCARDPHSTGWYKDFDYWGQGTLVTVSSAAAHHHHHH
In assay [1], B3 registered an equilibrium dissociation constant (Kd) of 0.01 nM, a koff of 1.55e-05 s⁻¹ and a kon of 1.54e+06 M⁻¹ s⁻¹. Besides, in assay [2], the equilibrium dissociation constant (Kd) was 11.8 nM, the off-rate (koff) was found to be 0.000761 s⁻¹ and the kon is 64300 M⁻¹ s⁻¹. Further, the “Jurkat-CD137/CHO-PD-1 Reporter Assay EC50” value in assay [3] came to 0.321 nM.

B4: TPP-1028: CD137A-6GS-HSA3-6GS-PD138G7(G109D)-His (bispecific antibody)
chain: EVQLVESGGGLVQPGGSLRLSCAASGFTLSNYWMNWVRQAPGKGLEWVANINQDGSERYYVDSVKGRFTISRDNAKNSLYLQMNSLRAEDTAVYYCARGGEGYGVDHYGLDVSGQGTTVTVSSGGGGSGGGGSGGGGSGGGGSGGGGSGGGGSEVQLLESGGGLVKPGGSLRLSCAASGFTVSSYTMNWVRQAPGKGLEWVSSISSSGRYIYYADSVKGRFTISRDNAKNSLYLQMNSLRAEDTAVYYCARDPRMVGNPHEFDIWGQGTMVTVSSGGGGSGGGGSGGGGSGGGGSGGGGSGGGGSEVQLVESGGGVVRPGGSLRLSCAASGFTFDDYAMSWVRQAPGKGLEWVSGITWNGGSTGYADSVKDRFTISRDNAKNSLYLQMNSLRAEDTALYYCVRDKYSYAWSYDDFDIWGQGTMVTVSSAAAHHHHHH
Take B4: in assay [1], binding was characterised by a dissociation constant (Kd) of 0.0281 nM, the off-rate (koff) came out at 1.9e-05 s⁻¹ and the kon came out at 674000 M⁻¹ s⁻¹. In assay [2], binding was characterised by a dissociation constant (Kd) of 5.83 nM, the koff amounted to 0.00235 s⁻¹ and the kon stood at 403000 M⁻¹ s⁻¹. Besides, the “Jurkat-CD137/CHO-PD-1 Reporter Assay EC50” value in assay [3] stood at 0.312 nM.

B5: TPP-969: PDA-6GS-HSA2-6GS-172E1-13-His (bispecific antibody)
chain: EVQLVESGGGLVQPGRSLRLSCAASGFTFDDYALHWVRQAPGKDLEWVSGISWNGGSYGYADSVKGRFTISRDNAKNSLYLQMNSLRAEDTALYYCVREKGPGLTGSTADYYGLDAWGQGTMVTVSSGGGGSGGGGSGGGGSGGGGSGGGGSGGGGSEVQLVESGGGLVKPGGSLRLSCAASGFTFSNYNMNWVRQAPGKGLEWVSSISSAGTHIYYADSVKGRFTISRDNAKNSLYLQMNSLRAEDTAVYYCARDPHSTGWYKDFDYWGQGTLVTVSSGGGGSGGGGSGGGGSGGGGSGGGGSGGGGSEVQLVESGGGVVQPGGSLRLSCAASGFTFSNYGMHWVRQAPGKGLEWVAVISNDGNTKTYADSVKGRFTISRDNSKNTLYLQMNSLRAEDTAVYYCAQDETTTVTASYYFDYWGQGTLVTVSSAAAHHHHHH
On to B5, for which, in assay [1], binding was put at a Kd of 20.9 nM, the koff was determined as 0.00255 s⁻¹ and the kon was found to be 122000 M⁻¹ s⁻¹. In assay [2], the Kd was 13.4 nM, the koff was 0.000915 s⁻¹ and the kon stood at 68500 M⁻¹ s⁻¹. Moreover, the “Jurkat-CD137/CHO-PD-1 Reporter Assay EC50” value in assay [3] came out at 11.1 nM.

B6: TPP-1027: CD137A-6GS-HSA2-6GS-PD138G7(G109D)-His (bispecific antibody)
chain: EVQLVESGGGLVQPGGSLRLSCAASGFTLSNYWMNWVRQAPGKGLEWVANINQDGSERYYVDSVKGRFTISRDNAKNSLYLQMNSLRAEDTAVYYCARGGEGYGVDHYGLDVSGQGTTVTVSSGGGGSGGGGSGGGGSGGGGSGGGGSGGGGSEVQLVESGGGLVKPGGSLRLSCAASGFTFSNYNMNWVRQAPGKGLEWVSSISSAGTHIYYADSVKGRFTISRDNAKNSLYLQMNSLRAEDTAVYYCARDPHSTGWYKDFDYWGQGTLVTVSSGGGGSGGGGSGGGGSGGGGSGGGGSGGGGSEVQLVESGGGVVRPGGSLRLSCAASGFTFDDYAMSWVRQAPGKGLEWVSGITWNGGSTGYADSVKDRFTISRDNAKNSLYLQMNSLRAEDTALYYCVRDKYSYAWSYDDFDIWGQGTMVTVSSAAAHHHHHH
B6: in assay [1], the affinity, expressed as Kd, was 0.023 nM; the dissociation rate constant (koff) was found to be 2.87e-05 s⁻¹; the on-rate constant (kon) amounted to 1.25e+06 M⁻¹ s⁻¹. In assay [2], this molecule registered a dissociation constant (Kd) of 5.95 nM, a dissociation rate constant (koff) of 0.00246 s⁻¹ and a kon of 413000 M⁻¹ s⁻¹. Moreover, the “Jurkat-CD137/CHO-PD-1 Reporter Assay EC50” value in assay [3] was 0.238 nM.

B7: TPP-973: CD137A-6GS-PDA2-6GS-HSA2-His (bispecific antibody)
chain: EVQLVESGGGLVQPGGSLRLSCAASGFTLSNYWMNWVRQAPGKGLEWVANINQDGSERYYVDSVKGRFTISRDNAKNSLYLQMNSLRAEDTAVYYCARGGEGYGVDHYGLDVSGQGTTVTVSSGGGGSGGGGSGGGGSGGGGSGGGGSGGGGSEVQLVESGGGVVRPGGSLRLSCAASGFTFDDYAMSWVRQAPGKGLEWVSGITWNAGSTGYADSVKGRFTISRDNAKNSLYLQMNSLRAEDTALYYCVRDKYSYAWSYDDFDIWGQGTMVTVSSGGGGSGGGGSGGGGSGGGGSGGGGSGGGGSEVQLVESGGGLVKPGGSLRLSCAASGFTFSNYNMNWVRQAPGKGLEWVSSISSAGTHIYYADSVKGRFTISRDNAKNSLYLQMNSLRAEDTAVYYCARDPHSTGWYKDFDYWGQGTLVTVSSAAAHHHHHH
For the molecule B7, in assay [1], the Kd came to 0.108 nM, the off-rate constant (koff) turned out to be 2.57e-05 s⁻¹ and the on-rate (kon) is 237000 M⁻¹ s⁻¹. In addition, in assay [2], binding was put at a Kd of 71.6 nM, the off-rate constant (koff) stood at 0.014 s⁻¹ and the kon was 195000 M⁻¹ s⁻¹. In assay [3], the “Jurkat-CD137/CHO-PD-1 Reporter Assay EC50” value came to 0.254 nM.

A word on the Kd: it is the free concentration of one partner at which half of the binding sites on the other are occupied at equilibrium, for simple one-to-one binding. For orientation: koff means the rate constant with which the complex falls apart. The kon is the rate constant with which the complex forms.
